*1 amine or outer side, *2 acyl side, *3 side chain or, on linkers, in order; H or OH if unused. Bridges are numbered along the chain shown (N, C = ends). Primed or numbered codes have the meaning given here. [ ]: non-standard residue; d: D form. The star is where a group is joined. mli = maleimide cyclization element: 3,4-maleimide inserted symmetrically, forming a vinyl thioether with each Cys sulfur; mli(Me)″ = N-methyl maleimide cyclization element, vinyl thioethers with both Cys, CN1C(=O)C([*:1])=C([*:2])C1=O; mli(DOTA-Eda) = 3,4-N-(DOTA-aminoethyl)-maleimide bridging two Cys S atoms as vinyl thioethers; Ttds = 1,13-diamino-4,7,10-trioxatridecan-succinamic acid, NCCCOCCOCCOCCCNC(=O)CCC(=O)*; mli(DOTA-Ttd) = 3,4-N-(DOTA-Ttd)-maleimide bridging two Cys S atoms as vinyl thioethers; mli(NODAGA-Ttd) = mli with NODAGA attached to the maleimide nitrogen via a Ttd linker; mli(N4Ac-Ttd) = mli with N4Ac attached to the maleimide nitrogen via a Ttd linker; mli(Me) = N-methyl maleimide cyclization element, CN1C(=O)C([*:1])=C([*:2])C1=O; N4Ac = 6-carboxy-1,4,8,11-tetraazaundecane, NCCNCC(CNCCN)C(=O)*; DOTA = O=C(O)CN1CCN(CC(=O)O)CCN(CC(=O)*)CCN(CC(=O)O)CC1; NODAGA = O=C(O)CN1CCN(CC(=O)O)CCN(C(CCC(=O)*)C(=O)O)CC1; O2Oc = 3,6-dioxaoctanoic acid; Nle = CCCC[C@H](N)C(=O)O; Hexanoyl = CCCCCC(=O)*
What was measured:
[1] = target: T1, fibroblast activation protein (FAP) on FAP-expressing human WI-38 fibroblasts (human, UniProt Q12884 1-760); assay: competitive FACS on WI-38 cells vs 3 nM Cy5-labeled probe; A = pIC50 >7.0
T1 construct: Endogenous FAP on WI-38 cells (ECACC) in the FACS assay; also called human FAP
Protocol: FAP-expressing human WI-38 fibroblasts (ECACC) were cultured in EMEM including 15% fetal bovine serum, 2 mM L-Glutamine and 1% Non-essential amino acids. Cells were detached with Accutase (Biolegend, #BLD-423201) and washed in FACS buffer (PBS including 1% FBS). Cells were diluted in FACS buffer to a final concentration of 100.000 cells per ml and 200 μl of the cell suspension are transferred to a u-shaped non-binding 96-well plate (Greiner). […] Cell were washed twice with FACS buffer and resuspended in 200 μl FACS buffer. Cells were analyzed in an Attune NxT flow cytometer. Median fluorescence intensities (Cy5 channel) was calculated by Attune NxT software and plotted against peptide concentrations. Four parameter logistic (4PL) curve fitting and pIC50 calculations were performed using ActivityBase software.

[2] = target: Recombinant human FAP (R&D systems, #3715-SE) (human, UniProt Q12884 26-760); assay: cell-based or functional assay

pIC50 Category (FACS) [1] [pIC50]	pIC50 Category (Activity), FRET-based FAP protease activity assay [2] [pIC50]	Binder
> 7	> 7	Hexanoyl-CPPTQFCD-NH2 (linker 1-7 via mli(N4Ac-Ttd)) [compound Hex-[Cys(mli(N4Ac-Ttd))-Pro-Pro-Thr-Gln-Phe-Cys]-Asp-NH2 (2026)]
> 7	> 7	Hexanoyl-CPPTQFCDK(N4Ac)-NH2 (linker 1-7 via mli) [compound Hex-[Cys(mli)-Pro-Pro-Thr-Gln-Phe-Cys]-Asp-Lys(N4Ac)-NH2 (2024)]
> 7	> 7	Hexanoyl-CPPTQFCD-NH2 (linker 1-7 via mli(DOTA-Eda)) [compound Hex-[Cys(mli(DOTA-Eda))-Pro-Pro-Thr-Gln-Phe-Cys]-Asp-NH2 (2018)]
> 7	> 7	{DOTA-Ttds}-[Nle]CPPTEFCDHFRD-NH2 (disulfide 2-8, By the running order it belongs to 1006) [compound DOTA-Ttds-Nle-[Cys-Pro-Pro-Thr-Glu-Phe-Cys]-Asp-His-Phe-Arg-Asp-NH2 (1006)]
> 7	> 7	{DOTA-O2Oc}-[Nle]CPPTEFCDHFRD-NH2 (disulfide 2-8, By the running order it belongs to 1005) [compound DOTA-O2Oc-Nle-[Cys-Pro-Pro-Thr-Glu-Phe-Cys]-Asp-His-Phe-Arg-Asp-NH2 (1005)]
> 7	> 7	Hexanoyl-CPPTQFCDK(NODAGA)-NH2 (linker 1-7 via mli) [compound Hex-[Cys(mli)-Pro-Pro-Thr-Gln-Phe-Cys]-Asp-Lys(NODAGA)-NH2 (2023)]
> 7	> 7	Hexanoyl-CPPTQFCD-NH2 (linker 1-7 via mli(NODAGA-Ttd)) [compound Hex-[Cys(mli(NODAGA-Ttd))-Pro-Pro-Thr-Gln-Phe-Cys]-Asp-NH2 (2025)]
> 7	> 7	{DOTA-Ttds}-[Nle]CPPTQFCD-NH2 (linker 2-8 via mli(Me)″) [compound DOTA-Ttds-Nle-[Cys(mli(Me))-Pro-Pro-Thr-Gln-Phe-Cys]-Asp-NH2 (2016)]
> 7	> 7	{DOTA-Ttds}-[Nle]CPPTQFCD-NH2 (disulfide 2-8) [compound DOTA-Ttds-Nle-[Cys-Pro-Pro-Thr-Gln-Phe-Cys]-Asp-NH2 (1008)]
> 7	> 7	Hexanoyl-CPPTQFCD-NH2 (linker 1-7 via mli(DOTA-Ttd)) [compound Hex-[Cys(mli(DOTA-Ttd))-Pro-Pro-Thr-Gln-Phe-Cys]-Asp-NH2 (2017)]
> 7	> 7	Hexanoyl-CPPTQFCDK(DOTA)-NH2 (linker 1-7 via mli(Me); SMILES CCCCCC(=O)N[C@H]1CSC2=C(SC[C@@H](C(=O)N[C@@H](CC(=O)O)C(=O)N[C@@H](CCCCNC(=O)CN3CCN(CC(=O)O)CCN(CC(=O)O)CCN(CC(=O)O)CC3)C(N)=O)NC(=O)[C@H](Cc3ccccc3)NC(=O)[C@H](CCC(N)=O)NC(=O)[C@H]([C@@H](C)O)NC(=O)[C@@H]3CCCN3C(=O)[C@@H]3CCCN3C1=O)C(=O)N(C)C2=O) [compound Hex-[Cys(mli(Me))-Pro-Pro-Thr-Gln-Phe-Cys]-Asp-Lys(DOTA)-NH2 (2015)]

— US20240115745A1 (3B PHARMACEUTICALS, published 2024)
